“And” between values parts separate entries of the source, which are not always exact repeats. Identical values can stand only once.
Legend:
[1] = biological target: T1, human RANK-L (Receptor Activator of Nuclear factor Kappa B Ligand), recombinant (human, UniProt O14788 140-317, limits assumed); test: SPR (Biacore), human RANK-L immobilised on the chip, ADR03 injected
T1 construct: The Methods also describe RANKL lipoparticles for phage ELISA and SPR; also called hRANK-L; hRANKL
T1 sequence (looked up): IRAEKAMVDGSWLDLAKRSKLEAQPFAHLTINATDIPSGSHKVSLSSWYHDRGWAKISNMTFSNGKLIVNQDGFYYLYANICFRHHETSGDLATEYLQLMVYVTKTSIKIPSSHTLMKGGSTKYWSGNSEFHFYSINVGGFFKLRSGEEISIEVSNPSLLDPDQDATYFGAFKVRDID
Experimental: (§1) Measurement of the kinetics of ADR03 binding to human RANK-L was carried out by immobilising human RANKL onto a research grade CMS sensor chip using standard amine coupling. Each of three surfaces is first activated for seven minutes using a 1:1 mixture of […] N-hydroxysuccinimide (NHS) and […] 1-ethyl-3-(3-dimethylaminopropyl)-carbodimide (EDC). Then, the RANK-L sample is diluted 1- to 50-fold in 10 mM sodium acetate, pH 4.0, and exposed to the activated chip surface for different lengths of time (ten seconds to two minutes) to create three different density surfaces of RANK-L. Each surface is then blocked with a seven-minute injection of 1 M ethanolamine, pH 8.2. RANK-L is diluted 100-fold and injected for different amounts of time to be captured at three different surface densities (60 RU, 45 RU, 12 RU; Response Unit (RU) is termed by Biacore and relates to target molecule per surface area) onto a streptavidin-containing sensor chip. The experiments can be performed on a Biacore® 2000 or T100 optical biosensor. ADR03 is supplied at approximately 100 μg/mL and tested in a 3-fold dilution series in Sample Running Buffer over the three RANK-L surfaces. Each of ADR03 concentrations (five, 3-fold dilutions of RANK-L-coupled sensors) is tested three times to assess reproducibility of the assay. Each test is injected at a flow rate of 100 μL/minute for 60 seconds, followed by a three-minute dissociation phase. Bound ADR03 can then be removed using a five-second pulse with sensor regeneration solution. All data is usually collected at a temperature-controlled 20° c. The kinetic responses for the ADR03 injections can be analyzed using the non-linear least squares analysis program CLAMP (Myszka, D. G. and Morton, T. A. (1998) Trends Biochem. Sci., 23: 149-150). Calculations of multivalent interactions can be determined using a model to fit the avidity of the bivalent interaction of ADR03 with RANK-L (Drake et al. (2004) Anal. Biochem., 328: 35-43; and Muller et al., (1998) Anal. Biochem. 261: 149-158).

[2] = biological target: T1, human RANK-L (Receptor Activator of …); test: SPR (Biacore) sensorgrams with fitted curves; panel headed "pAb+RANKL"; value from the column "KD" of the table drawn in the panel
Experimental: as §1, with “The experiments can be performed on a Biacore® 2000 or T100 optical biosensor. ADR03 is supplied at approximately 100 μg/mL and tested in a 3-fold dilution series in Sample Running Buffer over the three RANK-L surfaces. Each of ADR03 concentrations (five, 3-fold dilutions of RANK-L-coupled sensors) is tested three times to assess reproducibility of the assay. Each test is injected at a flow rate of 100 μL/minute for 60 seconds, followed by a three-minute dissociation phase. Bound ADR03 can then be removed using a five-second pulse with sensor regeneration solution. All data is usually collected at a temperature-controlled 20° c.” left out

[3] = biological target: T1, human RANK-L (Receptor Activator of …); test: cell-based or functional assay

Kd [1]: 13.2 nM
koff [1]: 0.00029 s⁻¹
kon [1]: ~23000 M⁻¹ s⁻¹
Kd [2]: 13.2 nM
IC50 of inhibition of hRANK-L-induced production of TRAP positive multinucleated cells (RAW264.7) [3]: 100 ng/mL and 3 nM
B1: ADR03 i-body (RANK-L binding i-body on the NCAM domain 1 scaffold) (designed binder)
chain: LQVDIVPSQGEISVGESKFFLCQVAGAHTVESISWFSPNGEKLTPNQQRISVVWNDDSSSTLTIYNANIDDAGIYKCVVVASARRGFGWVYPHEATVNVKIFQ
notes: I-bodies were expressed in E. coli with FLAG or penta-His tags; also called ADR3; i-body ADR03

— US20250297020A1 (ADALTA, published 2025)
